# In IntAct's records for PubMed 16098514:
# B1: GTPase RhebL1 (Homo sapiens), Q8TAI7 (parent)
# chain: MPLVRYRKVVILGYRCVGKTSLAHQFVEGEFSEGYDPTVENTYSKIVTLGKDEFHLHLVDTAGQDEYSILPYSFIIGVHGYVLVYSVTSLHSFQVIESLYQKLHEGHGKTRVPVVLVGNKADLSPEREVQAVEGKKLAESWGATFMESSARENQLTQGIFTKVIQEIARVENSYGQERRCHLM
# Variants of: B1
# Conditions: with mtor_human MTOR
row,Variant,effect of a mutation on the interaction
1,N41A,disrupting interaction
